Experimental data: US8236925 (UNIVERSITY OF MINNESOTA, dated 2012)

Biological target: the molecule itself

B1: E. coli dihydrofolate reductase (DHFR) (enzyme)
chain: MISLIAALAVDRVIGMENAMPWNLPADLAWFKRNTLNKPVIMGRHTWESIGRPLPGRKNIILSSQPGTDDRVTWVKSVDEAIAACGDVPEIMVIGGGRVYEQFLPKAQKLYLTHIDAEVEGDTHFPDYEPDDWESVFSEFHDADAQNSHSYCFEILERR
selectivity of dimerization for E. coli DHFR relative to mouse DHFR: > 1e+07
ΔG of favorable protein-protein interactions: ≥ -3.1 kcal/mol
